Data on nine compounds can be found in US8410045B2, “Camptothecin-peptide conjugates and pharmaceutical compositions containing the same” (Drais Pharmaceuticals, Inc., priority 2006, dated 2013).

Where two headings read alike, the source gives them in different places. Where a SMILES comes first, the peptide text is derived from it. Where no end group is shown, it is not given here. The star is where a group is joined. X2 = CCc1c2c(nc3ccc(OC(=O)[C@H]4CC[C@H](CNC(=O)CCCCCNC(=O)C5CCC(CN6C(=O)CC(*)C6=O)CC5)CC4)cc13)-c1cc3c(c(=O)n1C2)COC(=O)[C@]3(O)CC; X3 = CCc1c2c(nc3ccc(OC(=O)CCCCCNC(=O)C4CCC(CN5C(=O)CC(*)C5=O)CC4)cc13)-c1cc3c(c(=O)n1C2)COC(=O)[C@]3(O)CC

For series [1], the system named is NCI-H460 human epithelial lung carcinoma cells. The series can be described thus: In vitro cytotoxicity (WST-1 cell viability). In kind it is cell-based. The method, then: (§1) Cytotoxic evaluation was performed by seeded cells for 24 h prior to the addition of the therapeutic compound. Cells were incubated for 48 h (37° C.) with different dilutions of the therapeutic compound. Cell viability was then assessed using the WST-1 assay (Roche). The results are expressed as mean cytotoxic concentrations (IC50 value or molar concentration that inhibits 50% of cell viability) that were estimated from sigmoid regression, using Graph Pad Prism 3.02 software.
NCI-H460 (ATCC#: HTB-177): human epithelial lung carcinoma cells. Cells were cultured in RPMI 1640+glutamax and 10% of fetal bovine serum. Cells were plated at a density of 10,000 cells/well in 96-well plates.
Background: Tetrazolium dyes change colour on reduction, which living cells bring about.

Series [2] relates to HCT 116 human epithelial colon carcinoma cells. The series can be described thus: cells. In kind it is cell-based. On the procedure: as §1
HCT 116 (ATCC #: CCL-247): human epithelial colon carcinoma cells. Cells were cultured in Mc Coy's 5a medium+1.5 mM L-glutamine and 10% fetal bovine serum. Cells were plated at a density of 8000 cells/well in 96-well plates.

The nature of series [3]: Stability of conjugates in citrated plasma at 37° C. (half life time, HPLC fluorescence). Format: in vitro ADME, human. Particulars: human, plasma. The method, then: (§2) The stability of the conjugates was tested in citrated plasma (10% (v/v) sodium citrate buffer, 0.106M) from different species (see Table 1 below). The conjugates at 2.55 μM were incubated at 37° C. in plasma. Samples were analysed using the HPLC fluorescence method described below (see chromatographic equipment and conditions) following TFA/acetonitrile extraction and the amount of free camptothecin, analogs or derivatives thereof (e.g. SN38) released by the conjugates was measured.
(§3) Chromatographic equipment and conditions: 150 μL of each sample were placed in 1.5 mL micro-centrifuge tubes. 450 μL of 5% (v/v) TFA in H2O was added to each tube and the mixture was vortexed for 5 seconds. Samples were then centrifuged at 16000 g, 3 minutes at +4° C. 100 μL of supernatant were placed in 1.5 mL micro-centrifuge tubes. Methanol (100 μL) was then immediately added and vortexed for 5 seconds. Samples were then centrifuged at 16000 g, 3 minutes at room temperature. 150 μL of supernatant were recovered for HPLC analysis. Conjugates, metabolites and camptothecin derivative (i.e. SN38) were separated by high-performance liquid chromatography (HPLC; Agilent 1100 series equipped with a fluorescence detector) using a 4.6×100 mm ([…] particle size) Luna C18(2) column (Phenomenex ref. 00D-4251-E0, Le Pecq, France). The aqueous component of the mobile phase (A) was 0.1% (v/v) TFA in water. The organic modifier (B) was acetonitrile containing 0.1% (v/v) TFA. For the conjugate and its metabolites an elution gradient increasing linearly the proportion of B from 15 to 37% in 2 min, from 37 to 47% in 6 min, followed by 2 min at 90% was applied with a constant flow rate of 1.2 mL/min. The proportion of B was then returned to the initial condition for 3.0 min.
(§4) The half life time of conjugate corresponds to the time necessary to have 50% by mole of free camptothecin, analogs or derivatives thereof released by the conjugates of the invention. In human plasma, the half life time of conjugate DPV1047-linker #1-SN38 (less than 5 mins) was shorter than that of conjugate DPV1047-linker #2-SN38 (6-7 mins), which, in turn, was shorter than that of conjugate DPV1047-linker #3-SN38 (12 mins).
(§5) As in Example II, the stability of these conjugates was tested in either human or dog plasma. Following incubation at 37° C., samples were analyzed after a TFA acetonitrile extraction by the HPLC fluorescence method described in Example II. The in vitro cytotoxicity (IC50) of these compounds was also evaluated.

Test in series [4]: as above
In kind it is in vitro ADME. As to conditions: dog. The method, then:
as §2, §3, §4, §5

Test in series [5]: as above
In kind it is in vitro ADME. Particulars: DPV1047-linker-SN38, 2.55 μM. The method, then: as §2, §3, §4

In another series the test system is HT-29 tumors. The series can be described thus: Combination of DPV1047-BCH-SN38 with 5-FU or bevacizumab in the HT-29 tumor model. Particulars: 5-FU 40 mg/kg i.v. or bevacizumab 2 mg/kg i.p.
[6] abbreviates: DPV1047-linker-SN38, 2.55 μM, citrated plasma, read-out: Half life time, Human plasma.
Setting [7] is: DPV1047-linker-SN38, 2.55 μM, citrated plasma, read-out: Half life time, Dog plasma.
[8] abbreviates: time to 50% by mole free SN38 released, read-out: Half life time, Mouse plasma.
[9] abbreviates: line of DPV1047-BCH-SN38 12.5 μmol/kg.
[10] abbreviates: line of DPV1047-BCH-SN38 25 μmol/kg.

Description for HT-29 tumors: Mice were implanted with HT-29 tumors and treated by intraperitoneal administration (bevacizumab) or bolus intravenous injection (5-FU or DPV1047-BCH-SN38) at 10 μL/g. […] The T/C ratio was calculated following treatment with either bevacizumab, 5-FU or DPV1047-BCH-SN38. These T/C ratios were used to evaluate the expected T/C for combined treatment with bevacizumab and DPV1047-BCH-SN38, or 5-FU and DPV1047-BCH-SN38 (T/C of DPV1047-BCH-SN38×T/C of bevacizumab or 5-FU). […] The combination index of the two molecules was calculated by dividing the expected T/C by the observed T/C.

As for `CC[C@@]1(O)C(=O)OCc2c1cc1n(c2=O)Cc2cc3cc(O)ccc3nc2-1` [10-Hydroxycamptothecin, reference compound], the IC50 in series [1] (Homo sapiens, NCI-H460, 48 h, read-out: Drug concentration that inhibits 50% of cell viability (IC50), NCI-H460) came to 0.021 µM; in series [2] (Homo sapiens, HCT-116, 48 h, read-out: Drug concentration that inhibits 50% of cell viability (IC50), HCT 116), 0.064 µM.
As to `CCc1c2c(nc3ccc(OC(=O)[C@H]4CC[C@H](CNC(=O)CCCCCNC(=O)C5CCC(CN6C(=O)CC(SC[C@H](N)C(=O)N[C@H](C(=O)N[C@@H](CCCCN)C(=O)N[C@@H](CCCNC(=N)N)C(=O)NCC(=O)N[C@@H](CC(C)C)C(=O)N[C@@H](CCCCN)C(=O)N[C@@H](CC(C)C)C(=O)N[C@@H](CCCNC(=N)N)C(=O)N[C@@H](Cc7c[nH]cn7)C(=O)N[C@H](C(=O)N[C@@H](CCCNC(=N)N)C(=O)N7CCC[C@H]7C(=O)N[C@@H](CCCNC(=N)N)C(=O)N[C@H](C(=O)N[C@H](C(=O)N[C@@H](CCCNC(=N)N)C(=O)N[C@@H](CCSC)C(=O)N[C@@H](CC(=O)O)C(=O)N[C@H](C(=O)O)C(C)C)[C@@H](C)O)C(C)C)C(C)C)C(C)C)C6=O)CC5)CC4)cc13)-c1cc3c(c(=O)n1C2)COC(=O)[C@]3(O)CC` (some centres unmarked) [DPV1047-linker #7-SN38] (H-C(X2)VKRGLKLRHVRPRVTRMDV-OH; N-terminus and C-terminus assumed), the half-life in series [3] (setting [6]) is 2.5 h; in series [4] (setting [7]), 2.75 h; in series [5] (setting [8]), under 0.05 h; in series [5] (monkey), 1.5 h; in series [5] (rat) it was 0.15 h.
`O=c1[nH]cc(F)c(=O)[nH]1` [5-FU, 5-fluorouracil, reference compound]: the “Single treatment Reference drug T/C %” value amounted to 90% in the series on HT-29 tumors (setting [9]) and 94% in the series with HT-29 tumors (setting [10]).
The matching figures for “bevacizumab: bevacizumab (Avastin®, Roche)”: 67% and 67%.
Consider `CC[C@H](C)[C@H](NC(=O)[C@H](CCCCN)NC(=O)[C@@H](NC(=O)[C@H](CCC(N)=O)NC(=O)[C@H](CCCNC(=N)N)NC(=O)[C@@H](N)CSC1CC(=O)N(CC2CCC(C(=O)NC[C@H]3CC[C@H](C(=O)Oc4ccc5nc6c(cc5c4)Cn4c-6cc5c(c4=O)COC(=O)[C@]5(O)CC)CC3)CC2)C1=O)[C@@H](C)CC)C(=O)N[C@@H](Cc1c[nH]c2ccccc12)C(=O)N[C@@H](Cc1ccccc1)C(=O)N[C@@H](CCC(N)=O)C(=O)N[C@@H](CC(N)=O)C(=O)N[C@@H](CCCNC(=N)N)C(=O)N[C@@H](CCCNC(=N)N)C(=O)N[C@@H](CCSC)C(=O)N[C@@H](CCCCN)C(=O)N[C@@H](Cc1c[nH]c2ccccc12)C(=O)N[C@@H](CCCCN)C(=O)N[C@@H](CCCCN)C(=O)O` (some centres unmarked), for which the half-life in series [3] (Table 14, 10-Hydroxycamptothecin conjugates, read-out: Human Plasma Half life time) worked out at 0.533 h; in series [4] (Table 14, 10-Hydroxycamptothecin conjugates, read-out: Dog Plasma Half life time), 1.83 h. The IC50 in series [1] (48 h) turned out to be 0.161 µM; in series [2] (48 h), 0.194 µM.
Turning to `CCc1c2c(nc3ccc(OC(=O)[C@H]4CC[C@H](CNC(=O)C5CCC(CN6C(=O)CC(SCC(N)C(=O)N[C@@H](C(=O)N[C@H](CCCCN)C(=O)N[C@H](CCCNC(=N)N)C(=O)NCC(=O)N[C@H](CC(C)C)C(=O)N[C@H](CCCCN)C(=O)N[C@H](CC(C)C)C(=O)N[C@H](CCCNC(=N)N)C(=O)N[C@H](Cc7c[nH]cn7)C(=O)N[C@@H](C(=O)N[C@H](CCCNC(=N)N)C(=O)N7CCC[C@@H]7C(=O)N[C@H](CCCNC(=N)N)C(=O)N[C@@H](C(=O)N[C@@H](C(=O)N[C@H](CCCNC(=N)N)C(=O)N[C@H](CCSC)C(=O)N[C@H](CC(=O)O)C(=O)N[C@@H](C(=O)O)C(C)C)[C@H](C)O)C(C)C)C(C)C)C(C)C)C6=O)CC5)CC4)cc13)-c1cc3c(c(=O)n1C2)COC(=O)[C@]3(O)CC` (some centres unmarked) [DPV1047(D)-linker #5-SN38], the half-life in series [3] (Table 12, CPP-linker #5-SN38 conjugates incl. D conformation, read-out: Human Plasma Half life time) was found to be 1.83 h; in series [4] (Table 12, CPP-linker #5-SN38 conjugates incl. D conformation, read-out: Dog Plasma Half life time), 2.75 h. In series [2] (48 h), this compound registered an IC50 of 0.023 µM.
As for `CCc1c2c(nc3ccc(OC(=O)[C@H]4CC[C@H](CNC(=O)C5CCC(CN6C(=O)CC(SC[C@H](N)C(=O)N[C@@H](CCCNC(=N)N)C(=O)N[C@@H](CCC(N)=O)C(=O)N[C@H](C(=O)N[C@@H](CCCCN)C(=O)N[C@H](C(=O)N[C@@H](Cc7c[nH]c8ccccc78)C(=O)N[C@@H](Cc7ccccc7)C(=O)N[C@@H](CCC(N)=O)C(=O)N[C@@H](CC(N)=O)C(=O)N[C@@H](CCCNC(=N)N)C(=O)N[C@@H](CCCNC(=N)N)C(=O)N[C@@H](CCSC)C(=O)N[C@@H](CCCCN)C(=O)N[C@@H](Cc7c[nH]c8ccccc78)C(=O)N[C@@H](CCCCN)C(=O)N[C@@H](CCCCN)C(=O)O)[C@@H](C)CC)[C@@H](C)CC)C6=O)CC5)CC4)cc13)-c1cc3c(c(=O)n1C2)COC(=O)[C@]3(O)CC` (some centres unmarked) [Penetratin-linker #5-SN38], the half-life stood at 1 h in series [3] (Table 10, SN38 conjugates, read-out: Human Plasma Half life time) and 2.5 h in series [4] (Table 10, SN38 conjugates, read-out: Dog Plasma Half life time). Also, the results for the IC50 in series [1] (24 h) and in series [2] (24 h) were 0.053 µM and 0.057 µM, respectively.
In the case of `CCc1c2c(nc3ccc(OC(=O)CCCCCNC(=O)C4CCC(CN5C(=O)CC(SC[C@H](N)C(=O)N[C@H](C(=O)N[C@@H](CCCCN)C(=O)N[C@@H](CCCNC(=N)N)C(=O)NCC(=O)N[C@@H](CC(C)C)C(=O)N[C@@H](CCCCN)C(=O)N[C@@H](CC(C)C)C(=O)N[C@@H](CCCNC(=N)N)C(=O)N[C@@H](Cc6c[nH]cn6)C(=O)N[C@H](C(=O)N[C@@H](CCCNC(=N)N)C(=O)N6CCC[C@H]6C(=O)N[C@@H](CCCNC(=N)N)C(=O)N[C@H](C(=O)N[C@H](C(=O)N[C@@H](CCCNC(=N)N)C(=O)N[C@@H](CCSC)C(=O)N[C@@H](CC(=O)O)C(=O)N[C@H](C(=O)O)C(C)C)[C@@H](C)O)C(C)C)C(C)C)C(C)C)C5=O)CC4)cc13)-c1cc3c(c(=O)n1C2)COC(=O)[C@]3(O)CC` (some centres unmarked) [DPV1047-linker #4-SN38] (H-C(X3)VKRGLKLRHVRPRVTRMDV-OH), the half-life in series [3] (setting [6]) is 0.667 h; in series [4] (setting [7]), 1.75 h; in series [5] (setting [8]) it was under 0.05 h; in series [5] (monkey), 0.5 h; in series [5] (rat), 0.05 h.
As for “Tat-linker #7-10 Hydroxycamptothecin: Tat48-60 peptide coupled via linker #7 to 10-Hydroxycamptothecin (GRKKRRQRRRAHQ; also: coupled via linker #7 to 10-hydroxycamptothecin, site not given here; UniProt P04608 48-60, looked up, fragment)”, the IC50 in series [1] (Table 15, 48 h continuous exposure, mean of three independent experiments, read-out: Drug concentration that inhibits 50% of cell viability (IC50), NCI-H460) was found to be 0.127 µM; in series [2] (Table 15, 48 h continuous exposure, mean of three independent experiments, read-out: Drug concentration that inhibits 50% of cell viability (IC50), HCT 116), 0.158 µM.
